# Experimental data taken from the supplement of paper PMC10567573.
# B1: NEK8 (parent)
# chain: VTIKHVACGDFFTACLTDRGIIMT
# B2: ZNF511 (parent)
# chain: AAPFRFVARPVRFPREHQFFEDGD
# Variants of: B1
# Experiment: protein stability index of a GFP-peptide fusion (GPS, HEK-293T) (PSI 1-6); higher = more stable
# Settings: c terminus: a fixed tail appended
# 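Also: lentivirally expressed fusions sorted by FACS into six bins by GFP to DsRed ratio, PSI derived from sequencing read proportions per bin multiplied by bin number.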
row,Variant,protein stability index
1,VTIKHVACGDFFTACLTDRGIGMT [I22G],2.98
2,VTIKHVACGDFFTACLTDRGIAMT [I22A],2.38
3,VTIKHVACGDFFTACLTDRGIPMT [I22P],2.67
4,VTIKHVACGDFFTACLTDRGIQMT [I22Q],3.88
5,VTIKHVACGDFFTACLTDRGINMT [I22N],3.67
6,VTIKHVACGDFFTACLTDRGIDMT [I22D],3.93
7,VTIKHVACGDFFTACLTDRGIWMT [I22W],4.62
8,VTIKHVACGDFFTACLTDRGIKMT [I22K],3.62
9,VTIKHVACGDFFTACLTDRGIEMT [I22E],3.75
10,VTIKHVACGDFFTACLTDRGILMT [I22L],4.46
11,VTIKHVACGDFFTACLTDRGIVMT [I22V],2.46
12,VTIKHVACGDFFTACLTDRGIYMT [I22Y],2.39
13,VTIKHVACGDFFTACLTDRGICMT [I22C],3.72
14,VTIKHVACGDFFTACLTDRGIFMT [I22F],4.9
15,VTIKHVACGDFFTACLTDRTIIMT [G20T],1.48
16,VTIKHVACGDFFTACLTDRSIIMT [G20S],2.84
17,VTIKHVACGDFFTACLTDRYIIMT [G20Y],2.3
18,VTIKHVACGDFFTACLTDRQIIMT [G20Q],2.06
19,VTIKHVACGDFFTACLTDRWIIMT [G20W],2.57
20,VTIKHVACGDFFTACLTDRVIIMT [G20V],1.72
21,VTIKHVACGDFFTACLTDRGIIHT [M23H],2.61
22,VTIKHVACGDFFTACLTDRGIITT [M23T],1.89
23,VTIKHVACGDFFTACLTDRGIIYT [M23Y],3.28
24,VTIKHVACGDFFTACLTDRGIIAT [M23A],1.6

row,Variant,protein stability index
1,VTIKHVACGDFFTACLTDRGIIQT [M23Q],1.47
2,VTIKHVACGDFFTACLTDRGIIGT [M23G],3.62
3,VTIKHVACGDFFTACLTDRGIICT [M23C],2.67
4,VTIKHVACGDFFTACLTDRGIIIT [M23I],2.77
5,VTIKHVACGDFFTACLTDRGIIVT [M23V],2.73
6,VTIKHVACGDFFTACLTDRGIIST [M23S],2.56
7,VTIKHVACGDFFTACLTDRGIIKT [M23K],1.91
8,VTIKHVACGDFFTACLTDRGIIDT [M23D],3.49
9,VTIKHVACGDFFTACLTDRGIILT [M23L],3.85
10,VTIKHVACGDFFTACLTDRGIIET [M23E],2.81
11,VTIKHVACGDFFTACLTDRGIIRT [M23R],1.41
12,VTIKHVACGDFFTACLTDRGIINT [M23N],2.3
13,VTIKHVACGDFFTACLTDRGIIPT [M23P],2.9
14,VTIKHVACGDFFTACLTDRGIIMC [T24C],2.87
15,VTIKHVACGDFFTACLTDRGIIMS [T24S],2.33
16,VTIKHVACGDFFTACLTDRGIIMN [T24N],2.41
17,VTIKHVACGDFFTACLTDRGIIMV [T24V],2.81
18,VTIKHVACGDFFTACLTDRGIIMY [T24Y],2.3
19,VTIKHVACGDFFTACLTDRGIIMH [T24H],1.84
20,VTIKHVACGDFFTACLTDRGIIME [T24E],3.11
21,VTIKHVACGDFFTACLTDRGIIMR [T24R],2.45
22,VTIKHVACGDFFTACLTDRGIIMD [T24D],3.14
23,VTIKHVACGDFFTACLTDRGIIMK [T24K],2.93
24,VTIKHVACGDFFTACLTDRGIIMA [T24A],2.87

row,Variant,protein stability index
1,VTIKHVACGDFFTACLTDRGIIMI [T24I],3.19
2,VTIKHVACGDFFTACLTDRGIIMF [T24F],2.64
3,VTIKHVACGDFFTACLTDRGIIMG [T24G],3.47
4,VTIKHVACGDFFTACLTDRGIIML [T24L],4.18
5,VTIKHVACGDFFTACLTDRGNIMT [I21N],2.87
6,VTIKHVACGDFFTACLTDRGWIMT [I21W],2.31
7,VTIKHVACGDFFTACLTDRGFIMT [I21F],2.9
8,VTIKHVACGDFFTACLTDRGAIMT [I21A],1.79
9,VTIKHVACGDFFTACLTDRGVIMT [I21V],3.14
10,VTIKHVACGDFFTACLTDRGRIMT [I21R],2.49
11,VTIKHVACGDFFTACLTDRGHIMT [I21H],2.36
12,VTIKHVACGDFFTACLTDRGQIMT [I21Q],2.92
13,VTIKHVACGDFFTACLTDRGCIMT [I21C],2.7
14,VTIKHVACGDFFTACLTDRGDIMT [I21D],2.13
15,VTIKHVACGDFFTACLTDRGGIMT [I21G],3.21
16,VTIKHVACGDFFTACLTDRGPIMT [I21P],2.25
17,VTIKHVACGDFFTACLTDRGMIMT [I21M],2.95
18,VTIKHVACGDFFTACLTDRGEIMT [I21E],3.51
19,VTIKHVACGDFFTACLTDRGKIMT [I21K],2.78
20,VTIKHVACGDFFTACLTDRGSIMT [I21S],2.5
21,VTIKHVACGDFFTACLTDRGTIMT [I21T],2.48
22,VTIKHVACGDFFTACLTDRGLIMT [I21L],2.25

# Variants of: B2
# Experiment: as above
# Settings: c terminus: a fixed tail appended
row,Variant,protein stability index
1,AAPFTFVARPVRFPREHQFFEDGD [R5T],4.17
2,AAPFKFVARPVRFPREHQFFEDGD [R5K],3.91
3,AAPFWFVARPVRFPREHQFFEDGD [R5W],1.89
4,AAPFNFVARPVRFPREHQFFEDGD [R5N],4.22
5,AAPFHFVARPVRFPREHQFFEDGD [R5H],3.3
6,AAPFYFVARPVRFPREHQFFEDGD [R5Y],2.15
7,AAPFVFVARPVRFPREHQFFEDGD [R5V],3.58
8,AAPFFFVARPVRFPREHQFFEDGD [R5F],2.18
9,AAPFCFVARPVRFPREHQFFEDGD [R5C],3.05
10,AAPFQFVARPVRFPREHQFFEDGD [R5Q],4.61
11,AAPFDFVARPVRFPREHQFFEDGD [R5D],4.8
12,AAPFMFVARPVRFPREHQFFEDGD [R5M],3.25
13,AAPFEFVARPVRFPREHQFFEDGD [R5E],4.26
14,AAPFGFVARPVRFPREHQFFEDGD [R5G],3.68
15,AAPFPFVARPVRFPREHQFFEDGD [R5P],3.92
16,AAPFIFVARPVRFPREHQFFEDGD [R5I],2.67
17,AAPFSFVARPVRFPREHQFFEDGD [R5S],4.16
18,AAPFAFVARPVRFPREHQFFEDGD [R5A],3.53
19,AAPFLFVARPVRFPREHQFFEDGD [R5L],2.63
20,AAPFRFAARPVRFPREHQFFEDGD [V7A],3.9
21,AAPFRFEARPVRFPREHQFFEDGD [V7E],4.61
22,AAPFRFFARPVRFPREHQFFEDGD [V7F],3.69
23,AAPFRFGARPVRFPREHQFFEDGD [V7G],3.74
24,AAPFRFHARPVRFPREHQFFEDGD [V7H],2.04
